Patent US20240383994A1

target: human CD40 (hCD40), full length, on cells (human) (UniProt P25942); experiment: not given
Sequence (P25942 21-277 limits assumed): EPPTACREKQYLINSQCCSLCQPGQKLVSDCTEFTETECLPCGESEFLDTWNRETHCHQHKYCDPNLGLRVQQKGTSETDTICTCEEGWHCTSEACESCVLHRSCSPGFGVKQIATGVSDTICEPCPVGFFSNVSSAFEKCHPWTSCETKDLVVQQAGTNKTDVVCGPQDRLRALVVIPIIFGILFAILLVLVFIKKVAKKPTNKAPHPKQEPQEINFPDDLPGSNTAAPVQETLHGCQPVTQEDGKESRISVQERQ

Binder | IC50; NF-κB luciferase reporter (RLU), 293T-hCD40-NFκB cells stimulated with human CD40L protein 10 µg/mL [ng/mL]
B01 (antibody, V domains shown) VH: QIQLVQSGPELKKPGETVKISCKASGYTFTNYGMNWVKQAPGKGLKWMGWINPYTGEPTYADDFKGRFAFSVETSASTAYLQINNLKNEDTATYFCARKPPFDYWGQGTTLTVSS VL: DIVMTQAAPSVPVTPGESVSISCRSSKSLLHSNGNTYLYWFLQRPGQSPQILIYRVSNLASGVPDRFSGSGSGTAFTLRISRVEAEDVGVYYCMQHVEYPFTFGSGTKLEIK | 8.16
B02 (antibody, V domains shown) VH: EVQLQQSGPELVKPGASVKMSCKASGYTFTSYVMYWVKQKPGQGLEWIGYVNPYNDGTNYNEKFKGKATLTSDKSSSTAYMELSSLTSEDSAVYYCARGAMDYWGQGTSVTVSS VL: DIVMTQAAPSVPVTPGESVSISCRSSKSLLHSQGNTYLYWFLQRPGQSPQILIYRVSNLASGVPDRFSGSGSGTAFTLRISRVEAEDVGVYYCMQHVEYPFTFGSGTKLEIK | 5.21
A03 (antibody, V domains shown) VH: DVQLQESGPDRVKPSQSLSLTCTVTGYSITSDYSWHWIRQFPGNKLEWMGYIYSSGHTYYNPSLKSRISFTRDTSKNQFFLQLNSVTTEDTATYYCAIYYYGRSYFDNWGRGTTLTVSS VL: QIVLTQSPAIMSASPGEKVTLTCSASSSVNYMHWYQQKSGTSPKRWIYDTSKLASGVPARFSGSGSGTSYSLTISSMEAEDAATYYCQQWSSNPLTFGAGTKLELK | 287
B03 (antibody, V domains shown) VH: EVKLVESGGGLVQPGGSLRLSCATSGFTFSDFYMEWVRQPPGKRLEWIAASRDKANDYTTEYSPSVQGRFIVSRDSSQSILYLQMNALRTEDTAIYYCARDVGRSYALDYWGQGTSVTVSS VL: QVVLTQSPAIMSASPGEKVTMTCSASSSVTYMHWYQQKSGTSPKRWIYVTSKLASGVPTRFSGSGSGTSYSLTISSMEAEDAATYYCQQWSRKPPTFGAGTKLELK | 16.2
A01 (antibody, V domains shown) VH: QVQLKESGPGLVAPSQSLSITCTVSGFSLPTSGVHWVRQPPGKGLEWLGVIWAGGDTNYNSALMSRLSISKDNSKSQVFLKMNSLQKDDTAIYYCLGHGHFDVWGAGTTVTVSS VL: DVVMTQTPLSLPVSLGDQASISCRSSQSLVHSSGNTYLQWYLQKPGQSPGLLIYKVSNRFSGVPDRFSGSGSGTDFTLKISRVEAEDLGVYFCSQTTHVPWTFGGGTKLEIK | 2.22
A02 (antibody, V domains shown) VH: QVQLKESGPGLVAPSQSLSITCTVSGFSLTSSGVHWVRQPPGKGLEWLGVIWAGGDTSYNSALMSRLSISKDNSKSQVFLKMNSLQTDDTAMYYCLGHGHLDVWGAGTTVTVSS VL: DVVMTQTPLSLPVSLGDQASISCRSSQSLVHSSGNTYLHWYLQKPGQSPGLLIYKVSNRFSGVPDRFSGSGSGTDFTLKISRVEAEDLGVYFCSQTTHVPWTFGGGTKLEIK | 2.79

target: cynoCD40-mFc (monkey (cyno)); experiment: flow cytometry, blocking of cynoCD40-mFc (2 µg/mL) binding to CHO-K1-cynoCD40L cells
Sequence (chain, as listed by the source limits assumed, form in doubt): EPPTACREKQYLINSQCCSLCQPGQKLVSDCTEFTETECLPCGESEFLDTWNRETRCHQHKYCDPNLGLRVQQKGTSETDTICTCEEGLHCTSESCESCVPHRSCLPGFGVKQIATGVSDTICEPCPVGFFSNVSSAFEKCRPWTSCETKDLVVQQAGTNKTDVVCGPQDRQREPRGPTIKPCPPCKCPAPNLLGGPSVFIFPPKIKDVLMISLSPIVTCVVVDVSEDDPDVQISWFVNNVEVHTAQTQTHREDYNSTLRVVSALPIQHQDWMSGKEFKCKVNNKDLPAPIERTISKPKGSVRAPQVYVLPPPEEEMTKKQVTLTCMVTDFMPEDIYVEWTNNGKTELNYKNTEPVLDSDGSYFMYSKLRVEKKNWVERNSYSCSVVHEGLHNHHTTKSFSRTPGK

Binder | IC50 [nM]
Chi-A01 (antibody, human IgG4 S228P, kappa, V domains shown) VH: QVQLKESGPGLVAPSQSLSITCTVSGFSLPTSGVHWVRQPPGKGLEWLGVIWAGGDTNYNSALMSRLSISKDNSKSQVFLKMNSLQKDDTAIYYCLGHGHFDVWGAGTTVTVSS VL: DVVMTQTPLSLPVSLGDQASISCRSSQSLVHSSGNTYLQWYLQKPGQSPGLLIYKVSNRFSGVPDRFSGSGSGTDFTLKISRVEAEDLGVYFCSQTTHVPWTFGGGTKLEIKR | 25.2
hzA01-3.1 (antibody, human IgG4 S228P, kappa, V domains shown) VH: QVQLQESGPGLVKPSETLSLTCTVSGFSLPTSGVHWIRQPPGKGLEWIGVIWAGGDTNYNPSLKSRVTISKDNSKNQVFLKLSSVTAADTAVYYCLGHGHFDVWGQGTLVTVSS VL: DVVMTQSPLSLPVTLGQPASISCRSSQSLVHSSGNTYLQWYLQRPGQSPGLLIYKVSNRFSGVPDRFSGSGSGTDFTLKISRVEAEDVGVYYCSQTTHVPWTFGQGTKLEIKR | 25.5
hzA01-3.3 (antibody, human IgG4 S228P, kappa, V domains shown) VH: QVQLKESGPGLVKPSETLSLTCTVSGFSLPTSGVHWIRQPPGKGLEWIGVIWAGGDTNYNSALKSRVTISKDNSKSQVFLKLSSVTAADTAVYYCLGHGHFDVWGQGTLVTVSS VL: DVVMTQSPLSLPVTLGQPASISCRSSQSLVHSSGNTYLQWYLQRPGQSPGLLIYKVSNRFSGVPDRFSGSGSGTDFTLKISRVEAEDVGVYYCSQTTHVPWTFGQGTKLEIKR | 35.8
hzA01-3.4 (antibody, human IgG4 S228P, kappa, V domains shown) VH: QVQLKESGPGLVKPSETLSLTCTVSGFSLPTSGVHWIRQPPGKGLEWIGVIWAGGDTNYNSALMSRVTISKDNSKSQVFLKMSSVTAADTAVYYCLGHGHFDVWGQGTLVTVSS VL: DVVMTQSPLSLPVTLGQPASISCRSSQSLVHSSGNTYLQWYLQRPGQSPGLLIYKVSNRFSGVPDRFSGSGSGTDFTLKISRVEAEDVGVYYCSQTTHVPWTFGQGTKLEIKR | 22.9
